{"source": "patent US20130330359A1", "about": "(AbbVie / Abbott, published 2013)", "binders": {"B1": {"name": "1A-2989-187 (antibody, V domains shown)", "VH": "EVQLQQSGAELVRSGASVKLSCTASGFNIRDFYIHWVKQRPEQGLEWLGWIDPENGDIEYAPKFQGKATMTADTSSNTAYLQLNSLTSEDTALYYCNGNGYYLDYWGQGTTLTVSS", "VL": "not shown"}, "B2": {"name": "1A-2860-475 (antibody, V domains shown)", "VH": "DVLLQESGPDLVKPSQSLSLTCTVTGYSISSGYSWHWIRQFPGNKLEWMAYIHYTGNTNYNPSLKSRISITRDTSKNQFFLHLNSVTTEDTATYYCALFGLSGFWGQGTLVTVSA", "VL": "DVLMTQTPLSLPVSLGDQASISCRSSQTIVHSNGNTYLDWYLQKPGQSPKVLIYKVSNRFSGVPDRFSGSGSGTDFTLKISRVEAEDLGVYFCLQGSHVPWTFGGGTQLEIKR", "notes": "The parent line 1A-2860 and subclone 1A-2860-177 used in the assays are treated here as the same antibody; also called 1A-2860-177"}, "B3": {"name": "1B-3363-715 (antibody, V domains shown)", "VH": "DVQLQESGPDLVKPSQSLSLTCTVTGYSITSGYSWHWIRQFPGNKLEWMGYIHYSGNTDYNPSLKSRISFTRDTSKNQFFLQLNSVTTEDTATYFCAIGTGPWGQGTTLTVSS", "VL": "B2 VL with T28N, N35H, D39E, V51L, F92Y, L94F, Q108K", "notes": "The parent line 1B-3363 and subclone 1B-3363-502 used in the assays are treated here as the same antibody; also called 1B-3363-502"}}, "note": "Positions count from the first letter of the chain named."}
{"target": "T1, carrier free RGMb (R&D Systems) (UniProt Q6NW40 46-413, limits assumed)", "T1 construct": "also called RGMb-CF", "T1 sequence (looked up)": "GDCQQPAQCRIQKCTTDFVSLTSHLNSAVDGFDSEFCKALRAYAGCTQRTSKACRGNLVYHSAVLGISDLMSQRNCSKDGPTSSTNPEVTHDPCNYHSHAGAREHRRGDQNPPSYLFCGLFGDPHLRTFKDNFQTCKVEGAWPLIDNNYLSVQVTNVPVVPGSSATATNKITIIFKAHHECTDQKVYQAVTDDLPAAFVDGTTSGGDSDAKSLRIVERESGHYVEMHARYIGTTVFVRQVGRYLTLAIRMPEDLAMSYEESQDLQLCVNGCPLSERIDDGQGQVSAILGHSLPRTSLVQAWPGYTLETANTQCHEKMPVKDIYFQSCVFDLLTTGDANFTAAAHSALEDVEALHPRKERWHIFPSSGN", "assay": "EIA on coated carrier-free RGMb (summary of specificity)", "method": "(§1) Clones were then tested for cross-reactivity with RGMa and RGMb by EIA. Carrier free RGMa, RGMb, or RGMc (R&D Systems) was coated on the solid phase of micro-titer EIA plates at 0.5 ug/mL. After the antigen had been coated on the solid phase, it was removed and any open binding sites on the plates were blocked using fish gel block solution. The wells were washed with distilled water following this incubation. Cell supernatants and control reagents were added to the blocked plates and allowed to incubate at room temperature for at least one hour. The negative control was a purified mouse mAb from a different antigen system. The positive control for RGMa, RGMb, & RGMc was a goat anti-RGMa, RGMb, or RGMc polyclonal antibody (R&D Systems). Following this incubation, the solutions were removed from the plates and they were washed with distilled water. Donkey anti-Goat IgG-HRPO diluted to approximately 200 ng/mL in block solution was added to the plates with the positive control test samples and goat anti-mouse IgG-HRPO (Jackson Immunoresearch) diluted to approximately 200 ng/mL in block solution was added to the plates with the fusion #1 test samples. All plates were allowed to incubate for 30 minutes at room temperature. The plates were washed with distilled water and o-phenylenediamine substrate was used as the chromogen to generate signal. Plates were read at 492 nm and the results were analyzed."}
{"binder": "B1", "binding result": "no binding"}
{"binder": "B2", "binding result": "no binding"}
{"binder": "B3", "binding result": "no binding"}
{"target": "T2, RGMc antigen: amino acids 33-391 of RGMc followed by human Fc (human, UniProt Q6ZVN8 33-391)", "T2 construct": "also called RGMc-huFc; RGMc-Fc; not shown: human Fc", "T2 sequence": "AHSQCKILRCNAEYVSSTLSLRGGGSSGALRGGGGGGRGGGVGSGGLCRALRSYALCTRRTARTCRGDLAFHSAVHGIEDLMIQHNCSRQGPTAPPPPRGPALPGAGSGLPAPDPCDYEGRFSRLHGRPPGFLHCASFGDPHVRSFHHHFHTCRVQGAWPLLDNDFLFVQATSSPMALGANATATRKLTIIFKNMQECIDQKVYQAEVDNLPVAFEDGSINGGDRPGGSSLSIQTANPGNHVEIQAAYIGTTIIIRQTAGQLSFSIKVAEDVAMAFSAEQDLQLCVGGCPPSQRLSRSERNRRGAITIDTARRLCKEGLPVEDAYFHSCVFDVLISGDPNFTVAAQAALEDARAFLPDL", "assay": "direct EIA: RGMc-huFc coated at 1.0 ug/mL; supernatant diluted 1:125; goat anti-mouse IgG Fc-HRPO", "method": "(§2) A mouse:human chimeric antibody or RGMc-huFc was coated on the solid phase of micro-titer EIA plates at 1.0 ug/mL. After the antigen had been coated on the solid phase, it was removed and any open binding sites on the plates were blocked using BSA block solution. The wells were washed with distilled water. Cell supernatants and control reagents were added to the blocked plates and allowed to incubate at room temperature for at least one hour. The negative control was a purified mAb from a different antigen system. The positive control for human IgG was a purified anti-hu IgG mAb developed against another antigen containing human IgG Fc carrier protein. The RGMc positive control is Novus mab 1C12. Following this incubation, the solutions were removed from the plates and they were washed with distilled water. Goat anti-mouse IgG Fc-HRPO (Jackson Immunoresearch) diluted to approximately 200 ng/mL in block solution was added to the plates and allowed to incubate for 30 minutes at room temperature. The plates were washed with distilled water and o-phenylenediamine substrate (Abbott Laboratories) was used as the chromogen to generate signal. Plates were read at 492 nm and the results were analyzed."}
{"binder": "B1", "absorbance at 492 nm": 1.55}
{"binder": "B2", "absorbance at 492 nm": 1.66}
{"binder": "B3", "absorbance at 492 nm": 2.8}
{"target": "T1, carrier free RGMb (R&D Systems)", "assay": "direct EIA: carrier-free RGMb coated at 0.5 ug/mL; supernatant diluted 1:125; goat anti-mouse IgG-HRPO", "method": "as §1"}
{"binder": "B1", "absorbance at 492 nm": 0.07}
{"binder": "B2", "absorbance at 492 nm": 0.06}
{"binder": "B3", "absorbance at 492 nm": 0.09}
{"target": "T3, mouse:human chimeric antibody (used as human IgG / human IgG Fc antigen)", "T3 construct": "also called Hu IgG; human IgG Fc portion", "assay": "direct EIA: mouse:human chimeric antibody coated at 1.0 ug/mL; supernatant diluted 1:125; goat anti-mouse IgG Fc-HRPO", "method": "as §2"}
{"binder": "B1", "absorbance at 492 nm": 0.06}
{"binder": "B2", "absorbance at 492 nm": 0.06}
{"binder": "B3", "absorbance at 492 nm": 0.07}
{"target": "T2, RGMc antigen: amino acids 33-391 of …", "assay": "chemiluminescence immunoassay: supernatant mAb captured on sheep anti-mouse IgG Fc, RGMc-huFc at 200 ng/mL, acridinium-labeled goat anti-RGMc detection", "method": "Cell supernatant samples were analyzed for anti-RGMc antibodies by Chemiluminescence immunoassay (CIA). Sheep anti-mouse IgG Fc (Jackson Immunoresearch, West Grove, Pa.) was coated on 96 well micro-titer CIA plates (NUNC) at 5 ug/mL. After the capture reagent had been coated on the solid phase, it was removed and any open binding sites on the plates were blocked using a Fish gel/PBS (2% v/v) block solution. The wells were washed with distilled water and cell supernatants were added to the blocked plates and allowed to incubate at room temperature for at least one hour. The anti-mouse IgG Fc captures the anti-RGMc mouse antibody from the supernatant. Following the incubation, the supernatants were washed off using distilled water. A mouse/human IgG chimeric antibody (Abbott Laboratories) diluted in fish gel block to 5 ug/ml was added to each well and incubated for approximately 30 minutes at room temperature to block any captured mAbs that are specific for human IgG Fc portion of the immunogen. Following the incubation, the human IgG blocking solution was washed off using distilled water. RGMc-huFc antigen was then added to the plates at 200 ng/mL in fish gel block and incubated for 30 minutes at room temperature. Following this incubation, the antigen was washed from the plates using distilled water. Acridinium labeled goat anti-RGMc polyclonal antibody (R&D Systems, Minneapolis, Minn.) was diluted to 200 ng/ml in fish gel block, then added to the plates and allowed to incubate for 30 minutes at room temperature. The plates were washed with distilled water then processed on the Microbeta Jet instrument (Perkin Elmer, Waltham, Mass.). The Microbeta Jet adds Architect© Pre-Trigger and Trigger solutions (Abbott Laboratories). The plates are then read for flash chemiluminescence in luminescent counts per second (LCPS). […] The positive control (PC) used in this assay was spent medium from unfused splenocytes harvested from mouse #814 that were cultured for 7 to 10 days at 37° C.", "units": {"LCPS": "LCPS"}}
{"binder": "B1", "LCPS": 2500}
{"binder": "B2", "LCPS": 6610}
{"binder": "B3", "LCPS": 5260}
